Measured values as given in paper PMC6640709, “Selection and Characterization of a Nanobody Biosensor of GTP-Bound RHO Activities” (Antibodies, 2019).

How the values were obtained:
[1] = molecular target: T1, 2SHA-RHOA L63 constitutively active mutant, deleted for the CAAX motif (Homo sapiens (Human)., UniProt P61586, Q63L); assay: SPR; RH57-6xHis-Myc-6xHis captured on Ni-NTA chip (250-300 RU); 2S-HA-RHOA L63 or N19 as analyte, 3.125-50 nM, single-cycle kinetics; HBS-P+ (10 mM HEPES pH 7.4, 150 mM NaCl, 0.05% P20); 1:1 Langmuir fit; BIAcore T200; conditions: both partners purified
T1 construct: RHOA (Ras homologous family member A), deleted for the carboxy terminal four amino acids (CAAX motif); also called RHOA-CA; RHOA Q63L; source: E. coli BL21(DE3), purified (Strep-Tactin); not shown: 2x-Strep-tag, N-terminal, kept; HA, N-terminal, kept

[2] = molecular target: T2, 2SHA-RHOA wild type, deleted for the CAAX motif (Homo sapiens (Human)., UniProt P61586); assay: SPR; RH57-6xHis-Myc-6xHis captured on Ni-NTA chip; 2S-HA-RHOA WT loaded with GTPγS as analyte, 12.5-200 nM, single-cycle kinetics; HBS-P+; 1:1 Langmuir fit; conditions: both partners purified
T2 construct: RHOA (Ras homologous family member A), deleted for the carboxy terminal four amino acids (CAAX motif); the two nucleotide states are told apart by the assay; also called RHOA WT; 2S-HA-RHOA wt; source: E. coli BL21(DE3), purified (Strep-Tactin), loaded with GTPγS or GDP; not shown: 2x-Strep-tag, N-terminal, kept; HA, N-terminal, kept

[3] = molecular target: 2SHA-RHOA N19 dominant negative mutant, deleted for the CAAX motif (UniProt P61586 1-189, T19N); assay: SPR
endogenous RHOC = molecular target: T3, endogenous RHOC (Homo sapiens (Human)., UniProt P08134); assay: co-IP; RH57-6xHis-Myc expressed in HeLa; fresh, non-loaded lysate; intracellular antibody captured on His-tag Ni-NTA resin; endogenous RHO proteins blotted; conditions: partners not purified
T3 construct: RHOC, endogenous in HeLa cells; also called RHOA/B/C proteins; source: endogenous, HeLa lysate

endogenous RHOB = molecular target: T4, endogenous RHOB (Homo sapiens (Human)., UniProt P62745); assay: as above; conditions: partners not purified
T4 construct: RHOB (RAS homologous family member B), endogenous in HeLa cells; also called RHOA/B/C proteins; source: endogenous, HeLa lysate
T4 sequence (P62745 whole entry): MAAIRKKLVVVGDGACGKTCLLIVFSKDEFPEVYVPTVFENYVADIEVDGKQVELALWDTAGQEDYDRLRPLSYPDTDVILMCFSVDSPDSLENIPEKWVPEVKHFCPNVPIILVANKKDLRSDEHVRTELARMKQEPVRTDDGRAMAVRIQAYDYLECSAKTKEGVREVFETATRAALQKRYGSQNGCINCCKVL

T3 sequence (P08134 whole entry): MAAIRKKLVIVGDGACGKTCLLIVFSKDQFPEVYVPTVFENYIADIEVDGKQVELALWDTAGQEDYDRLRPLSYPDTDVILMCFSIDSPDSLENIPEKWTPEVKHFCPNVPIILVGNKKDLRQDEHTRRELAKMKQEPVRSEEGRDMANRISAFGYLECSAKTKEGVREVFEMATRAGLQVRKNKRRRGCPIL
T2 sequence (P61586 1-189, stated change not applied): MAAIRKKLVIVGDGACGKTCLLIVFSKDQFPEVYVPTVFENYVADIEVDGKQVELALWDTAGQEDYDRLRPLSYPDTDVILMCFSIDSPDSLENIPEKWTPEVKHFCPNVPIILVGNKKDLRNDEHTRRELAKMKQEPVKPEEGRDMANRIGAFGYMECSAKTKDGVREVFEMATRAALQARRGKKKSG
T1 sequence (P61586 1-189 Q63L): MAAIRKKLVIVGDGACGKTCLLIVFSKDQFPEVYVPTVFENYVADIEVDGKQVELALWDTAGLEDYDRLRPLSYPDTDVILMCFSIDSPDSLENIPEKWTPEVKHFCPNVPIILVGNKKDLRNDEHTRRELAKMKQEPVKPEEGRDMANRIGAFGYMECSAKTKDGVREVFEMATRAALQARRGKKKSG
2SHA-RHOA N19 dominant negative mutant, deleted for the CAAX motif, sequence (P61586 1-189 T19N): as the sequence (P61586 1-189 Q63L) above, with T19N, L63Q counted along it

Binder	Kd [1]	Kd [2]	Kd [3]	binding result (endogenous RHOC)	binding result (endogenous RHOB)
RH57 hs2dAb fused at its carboxy terminal end with 6xHis-Myc-6xHis tag (VHH, humanized synthetic single domain antibody from the NaLi-H1 phage display library; also called RH57-6xhis-myc-6xhis; RH57 nanobody; source: E. coli XL1BLUE periplasm, purified (His-tag purification beads); not shown: 6xHis, C-terminal, kept; Myc, C-terminal, kept) VHH: EVQLQASGGGFVQPGGSLRLSCAASGDTWWSSAMGWFRQAPGKEREFVSAISFYPTEYTYYADSVKGRFTISRDNSKNTVYLQMNSLRAEDTATYYCAWIAWGPWMRTSWYWGQGTQVTVSS	28 nM	60.5 nM	2410 nM	–	–
RH57 intracellular antibody with carboxy-terminal 6xHis tag followed by Myc tag (VHH, as the VHH of m1; also called hs2dAb RH57 with a 6xhis and carboxy Myc tag; source: HeLa, transiently transfected, in lysate; not shown: 6xHis, C-terminal, kept; Myc, C-terminal, kept) VHH: EVQLQASGGGFVQPGGSLRLSCAASGDTWWSSAMGWFRQAPGKEREFVSAISFYPTEYTYYADSVKGRFTISRDNSKNTVYLQMNSLRAEDTATYYCAWIAWGPWMRTSWYWGQGTQVTVSS	–	–	–	binds	binds
